Biological target: T1, MOCS2B wild-type, large subunit of MPT synthase (human, UniProt O96007 1-188)
T1 sequence (looked up): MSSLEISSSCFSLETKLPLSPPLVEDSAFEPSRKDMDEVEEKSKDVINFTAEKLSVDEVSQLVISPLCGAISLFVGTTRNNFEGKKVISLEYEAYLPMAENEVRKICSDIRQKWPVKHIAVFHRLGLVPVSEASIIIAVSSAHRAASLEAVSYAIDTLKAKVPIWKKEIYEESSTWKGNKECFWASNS
Assay: ITC

B1: MOCS2A, small subunit of MPT synthase (activated, thiocarboxylated) (natural protein, human, UniProt O96033 1-88, looked up)
chain: MVPLCQVEVLYFAKSAEITGVRSETISVPQEIKALQLWKEIETRHPGLADVRNQIIFAVRQEYVELGDQLLVLQPGDEIAVIPPISGG
modifications: thiocarboxylated C-terminal tail
  Kd: 360 ± 47 nM

Reference: PMC4329827 (Meta Gene, 2015)
